This note sets out measurements from PMC5127641 (2016).

Assay in all cases: BLI
In general terms: Biolayer interferometry detects binding as a change in optical thickness at a sensor tip.

Assay [1] deals with Bcl-xL, biotinylated (C-terminal avi-6His) (human, UniProt Q07817-1 1-233, biotin (enzymatic, BirA)).
In assay [2] the target is T1, Bcl-w, biotinylated (C-terminal avi-6His) (human, UniProt Q92843 1-193, biotin (enzymatic, BirA)).
T1 chain: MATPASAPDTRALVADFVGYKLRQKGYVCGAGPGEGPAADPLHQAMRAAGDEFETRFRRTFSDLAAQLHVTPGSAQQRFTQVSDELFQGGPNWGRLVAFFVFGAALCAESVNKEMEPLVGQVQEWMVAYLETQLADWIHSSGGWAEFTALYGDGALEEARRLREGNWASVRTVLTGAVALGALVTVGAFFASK

Assay [3] addresses Bcl-2, biotinylated (C-terminal avi-6His) (human, UniProt P10415 1-239, biotin (enzymatic, BirA)).
Assay [4] deals with T2, Bcl-B, biotinylated (C-terminal avi-6His) (human, UniProt Q9HD36 1-204, biotin (enzymatic, BirA)).
T2 chain: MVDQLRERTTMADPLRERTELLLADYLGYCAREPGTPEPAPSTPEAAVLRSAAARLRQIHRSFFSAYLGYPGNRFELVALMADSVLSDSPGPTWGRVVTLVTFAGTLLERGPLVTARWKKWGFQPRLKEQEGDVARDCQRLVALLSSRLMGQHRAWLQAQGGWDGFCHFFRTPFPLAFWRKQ

Assay [5] addresses T3, Bfl-1, biotinylated (C-terminal avi-6His) (human, UniProt Q16548 1-175, biotin (enzymatic, BirA)).
T3 chain: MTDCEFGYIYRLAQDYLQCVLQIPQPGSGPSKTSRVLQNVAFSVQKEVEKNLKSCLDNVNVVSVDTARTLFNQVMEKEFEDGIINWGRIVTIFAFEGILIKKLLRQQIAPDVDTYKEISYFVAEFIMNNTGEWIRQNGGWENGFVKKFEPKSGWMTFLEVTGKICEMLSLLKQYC

Assay [6] deals with T4, Mcl-1, biotinylated (C-terminal avi-6His) (human, UniProt Q07820 1-350, biotin (enzymatic, BirA)).
T4 chain: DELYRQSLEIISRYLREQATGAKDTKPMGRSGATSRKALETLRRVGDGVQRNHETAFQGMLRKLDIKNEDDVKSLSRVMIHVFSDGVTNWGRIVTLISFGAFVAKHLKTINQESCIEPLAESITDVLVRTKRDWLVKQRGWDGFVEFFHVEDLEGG

Sequence of Bcl-2, biotinylated (C-terminal avi-6His) (P10415 1-207): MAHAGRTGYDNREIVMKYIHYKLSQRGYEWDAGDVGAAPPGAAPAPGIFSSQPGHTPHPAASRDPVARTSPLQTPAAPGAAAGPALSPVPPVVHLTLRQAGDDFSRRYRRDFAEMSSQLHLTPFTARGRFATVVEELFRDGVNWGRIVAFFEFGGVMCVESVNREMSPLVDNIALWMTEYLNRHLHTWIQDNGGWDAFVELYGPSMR
Sequence of Bcl-xL, biotinylated (C-terminal avi-6His) (Q07817 1-209): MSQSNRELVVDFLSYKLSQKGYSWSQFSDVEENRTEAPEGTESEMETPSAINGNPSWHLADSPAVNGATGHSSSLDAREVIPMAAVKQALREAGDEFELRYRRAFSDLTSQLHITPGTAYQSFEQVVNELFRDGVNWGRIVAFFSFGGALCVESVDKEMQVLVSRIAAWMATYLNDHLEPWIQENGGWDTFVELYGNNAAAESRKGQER

B1: 2-CDP06 (Bcl-2-targeting Computationally Designed Protein) (designed binder)
chain: MADPKKVLDKAKDEAENRVRELKQKLEELYKEARKLDLTQEMRQELVDKARAASLQAIGDIFYAILRALAEAEKLKKAGLVNSQQLDELKRRLEELAEEARRKAEKLGDEFRLKLEYG
As for B1, the Kd in assay [1] was 12 µM; in assay [2] it was 1.7 µM; in assay [3], 0.009 µM; in assay [4], > 50 µM; in assay [5], > 50 µM; in assay [6] it was > 50 µM.

B2: B-ECM01 (enriched combinatorial mutant of B-CDP01) (designed binder)
chain: ADPKKILDKAKDQVENRVRELKQELERLYKEARKLDLTQEMRRKLHVRYIAAMLKAIAAILNAIAQAENEADKLKKAGLVNSQQLDELRRRLEELTEEAAQKAHDYGREFQLKLEY
Regarding B2, the Kd in assay [1] is 7.8 µM; in assay [4], 0.08 µM; in assay [5] it was 2.4 µM.

B3: B-CDP01 (Bcl-B-targeting computationally designed protein) (designed binder)
chain: ADPKKVLDKAKDQAENRVRELKQELERLYKEARKLDLTQEMRRKLEWRYIAAMLKAIGDILNAIAQAENEADKLKKAGLVNSQQLDELRRRLEELAKEAARKAHDYGREFQLKLEY
With B3, the Kd in assay [1] was found to be 0.02 µM; in assay [2], 2 µM; in assay [3], 0.017 µM; in assay [4], 0.008 µM; in assay [5], 0.52 µM; in assay [6], 0.00046 µM.

B4: F-ECM04 (enriched combinatorial mutant of F-CDP01) (designed binder)
chain: ADPKKVLDKAKDQAENRVRELKQKLEELYKEARKLDLTQEMRKKLEVAALGAVLAAHGDILNAIMQAKEEADKLKKAGLVNSQQLDELKRRLEELKEEALRKASDYGKEFHLKRRY
For B4, the dissociation constant (Kd) was found to be 0.54 µM in assay [1]; 3.8 µM in assay [2]; 4 µM in assay [4]; 0.0011 µM in assay [5]; 0.3 µM in assay [6].

B5: W-CDP03 (Bcl-w-targeting computationally designed protein) (designed binder)
chain: ADPKKVFDEAKDRAENNVRRLKQKLEELYKEARKKDLTQEEREKLKEKYKTAMAAAALAAIGDAFNALLKARKLHKNGQVNEQQLEELARRLQELAKEAFQKAKDYANEFEYKLEY
Turning to B5, the Kd in assay [1] was found to be 0.007 µM; in assay [2], 0.008 µM; in assay [3], 0.03 µM; in assay [4] it was 0.41 µM; in assay [5] it was 0.5 µM; in assay [6] it was 0.057 µM.

B6: X-CDP07 (Bcl-xL-targeting computationally designed protein) (designed binder)
chain: ADPKKVLDKAKDRAENVVRKLKKELEELYKEARKLDLTQEMRDRIRLAAIAARIAAFGDIFHAIMEALEEARKLKKAGLVNSQQLDELKRRLEELDEEAAQRAEKLGKEFELKLEY
As for B6, the values for the dissociation constant (Kd) in assay [3] and in assay [5] were 0.004 µM and > 50 µM, respectively.

B7: F-CDP01 (Bfl-1-targeting computationally designed protein) (designed binder)
chain: ADPKKVLDKAKDQAENRVRELKQKLEELYKEARKLDLTQEMRKKLQYAAIGAMLAAIGDILNAIMQAKQEADKLKKAGLVNSQQLDELKRRLEELKEEALRKAHDYGSEFYLKLEY
As to B7, the dissociation constant (Kd) in assay [1] came to 0.011 µM; in assay [4], 100 µM; in assay [5], 0.002 µM; in assay [6], 0.0046 µM.

As a reminder, the Kd is the constant that tells how readily two partners part at equilibrium. Low values mean a tighter complex, high ones a looser complex.
